B1: NAD-dependent protein deacetylase sirtuin-1 (Homo sapiens), Q96EB6 (parent)
chain: MADEAALALQPGGSPSAAGADREAASSPAGEPLRKRPRRDGPGLERSPGEPGGAAPEREVPAAARGCPGAAAAALWREAEAEAAAAGGEQEAQATAAAGEGDNGPGLQGPSREPPLADNLYDEDDDDEGEEEEEAAAAAIGYRDNLLFGDEIITNGFHSCESDEEDRASHASSSDWTPRPRIGPYTFVQQHLMIGTDPRTILKDLLPETIPPPELDDMTLWQIVINILSEPPKRKKRKDINTIEDAVKLLQECKKIIVLTGAGVSVSCGIPDFRSRDGIYARLAVDFPDLPDPQAMFDIEYFRKDPRPFFKFAKEIYPGQFQPSLCHKFIALSDKEGKLLRNYTQNIDTLEQVAGIQRIIQCHGSFATASCLICKYKVDCEAVRGDIFNQVVPRCPRCPADEPLAIMKPEIVFFGENLPEQFHRAMKYDKDEVDLLIVIGSSLKVRPVALIPSSIPHEVPQILINREPLPHLHFDVELLGDCDVIINELCHRLGGEYAKLCCNPVKLSEITEKPPRTQKELAYLSELPPTPLHVSEDSSSPERTSPPDSSVIVTLLDQAAKSNDDLDVSESKGCMEEKPQEVQTSRNVESIAEQMENPDLKNVGSSTGEKNERTSVAGTVRKCWPNRVAKEQISRRLDGNQYLFLPPNRYIFHGAEVYSDSEDDVLSSSSCGSNSDSGTCQSPSLEEPMEDESEIEEFYNGLEDEPDVPERAGGAGFGTDGDDQEAINEAISVKQEVTDMNYPSNKS

Variants of: B1
Conditions: with apex1_human APEX1, P27695
Sequence of apex1_human APEX1, P27695 (P27695 whole entry): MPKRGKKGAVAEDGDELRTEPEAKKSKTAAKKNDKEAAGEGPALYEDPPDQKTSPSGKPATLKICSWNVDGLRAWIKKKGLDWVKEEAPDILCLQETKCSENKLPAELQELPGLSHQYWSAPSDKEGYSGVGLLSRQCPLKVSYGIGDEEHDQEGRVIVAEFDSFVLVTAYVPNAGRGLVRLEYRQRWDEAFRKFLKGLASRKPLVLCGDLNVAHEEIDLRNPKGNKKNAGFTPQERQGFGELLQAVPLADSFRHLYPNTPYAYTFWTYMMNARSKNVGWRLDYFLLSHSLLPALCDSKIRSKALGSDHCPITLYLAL

Q: How did the “effect of a mutation on the interaction” value turn out when H363Y was run?
A: Its value is “disrupting interaction”.

Source: IntAct's records for PubMed 19934257
